Here are results for 3 molecules from patent publication US20060234282A1 (NATIONAL RESEARCH COUNCIL OF CANADA, published 2006).

In general, Ki refers to a measure of affinity in units of concentration, obtained from inhibition or displacement. High values mean weaker binding, low ones tighter binding.

The target in the assay is T1, rat galanin receptor-2 (GAL-R2) (rat, UniProt O08726 1-372).
T1 construct: Full 372 amino acid open reading frame expressed from pCDNA3/GALR-2 in HEK293 cells; cAMP assays used whole cells; also called rat GAL-R2; RGALR2.PRO
T1 sequence: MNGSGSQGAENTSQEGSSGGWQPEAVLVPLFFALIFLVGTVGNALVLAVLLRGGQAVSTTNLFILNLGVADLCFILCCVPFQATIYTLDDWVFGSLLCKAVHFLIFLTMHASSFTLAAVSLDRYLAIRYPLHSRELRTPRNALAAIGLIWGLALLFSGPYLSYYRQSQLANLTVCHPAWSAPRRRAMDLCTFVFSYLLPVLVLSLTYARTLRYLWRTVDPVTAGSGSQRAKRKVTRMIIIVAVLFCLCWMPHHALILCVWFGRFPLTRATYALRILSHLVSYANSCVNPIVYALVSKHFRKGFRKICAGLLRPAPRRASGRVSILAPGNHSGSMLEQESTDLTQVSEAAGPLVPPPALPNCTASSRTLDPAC
In words: displacement of ^125I-galanin, membranes of HEK293 cells expressing rat GAL-R2. As to the method: Binding reactions proceeded for 20 min at room temperature and were stopped by filtration through Unifilters-96, GF/B filters (Canberra Packard), using the 96-well Filtermate 196 filtration system from Canberra Packard. Filters were washed 5 times with 0.5 ml of ice cold 20 mM HEPES pH 7.5. The filters were dried at 55° C. for one hour and then 100 μl of μScint-20 (Canberra Packard) was added per well. Filters were counted with the Topcount microplate counter from Canberra Packard.

As for M40 (peptide), the Ki was determined as 8.3 nM. In other words, the single-digit nanomolar range.

B1: substance P (peptide, UniProt P20366 58-68, looked up)
peptide: RPKPQQFFGLM
notes: Galanin-unrelated control ligand
With B1, the binding result is listed as “no binding”.

B2: vasoactive intestinal polypeptide (peptide, UniProt P01282 125-152, looked up)
peptide: HSDAVFTDNYTRLRKQMAVKKYLNSILN
notes: as for B1
On to B2, for which the binding result is recorded as “no binding”.
